This data set can be described thus: label from the status in PepcDB records.

Data on 18 sequences can be found in a protein production outcome set (Wang et al. 2014).
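Also: failed if final PepcDB status was selected cloned or expressed and not failed if soluble or beyond.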

As for “FLEVNYYSRVLGMNRVMNVLLPEESDHNPNWTNDSLKDLPVLYLLHGMSGNHFDWQRKSDIERLLRQTKLAVIMPAADLAWYTNTDYGMNYFDAISQELPRKVASLFPQISTKRKKHFVAGMSMGGYGAFKLAFSSSYFSYAASLSGTLISSLNYPGFLDMEKQAYWKGIFGDLDKFSGSKNDIFELAKRQSNTGIELPKLYAWVGQQDFFYGANEKAIPRLRKMGYDVSYETNPGDHEWYYWSKYIENILQWLPINYQAEKRLS”, the protein production entry is “failed”.

Turning to “FPIPLPYCWLCRALIKRIQAMIPKGALAVAVAQVCRVVPLVAGGICQCLAERYSVILLDTLLGRMLPQLVCRLVLRCSM”, the protein production entry is “failed”.

Take “FRAAAVRVRVPATSANLGPGFDALGLALGLYDDVVVRVADSGLHIDIAGEGSETLPRDEKHLLVRSLRTAFDLLGGQPRGLEIVCANRIPHGRGLGSSSAAICAGIVAARAVTIGGEARLDDAALLDLATEIEGHPDNVAACLLGGFTLSWMES”: the protein production result is given as “failed”.

As for “GAEKEDLVQEGILGLLKAIKFYDETKSSFSSFAFLCIRREMISAIRKANTQKHMVLNEALKTNAILEDSAYFDDEGHNINNYKSSESNPEEAYLLKEEIEEFKKFSENNFSKFEKEVLTYLIRGYSYREIATILSKNLKSIDNTIQRIRKKSEEWIKEEENIKR”, the protein production entry is listed as “not failed”.

As to “GDGLKVSFDVTNTGKVAGADTPQLYVTSGQRKAMLRLAGFQKVDLAPGETKRVTLNVEPRILADYDTAKPGWTIAAGTYPLYVGRNAGEPVLTGSAKLKSWSR”, the protein production entry is “failed”.

As for “GEERKSSSWGRVDAMELPNYSRQLLQQLYTLCKEQQFCDCTISIGTIYFRAHKLVLAAASLLFKTLLDNTDTISIDASVVSPEEFALLLEMMYTGKLPVGKHNFSKIISLADSLQMFDVAVSCKNLLTSLVNCSVQGQVVRDVSAPSSETFRKEPEKPQVEILSSEGAGEPHSSPELAATPGGPVKAETEEAAHSVSQEMSVNSPTAQESQRNAETPAETPTTAEACSPSPPVQTFSEAKKTSTEPGCERKHYQLNFLLENEGVFSDALMVTQDVLKKLEMCSEIKGPQKEMIVKCFEGEGGHSAFQRILGKVREESLDVQTVVSLLRLYQYSNPAVKTALLDRKPEDVDTVQPKGSTEEGKTLSVLLLEHKEDLIQCVTQLRPIMESLETAKEEFLTGTEKRVILNCCEGRTPKETIENLLHRMTEEKTLTAEGLVKLLQAVKTTFPNLGLLLEKLQKSATLPSTTVQPSPDDYGTELLRRYHENLSEIFTDNQILLKMISHMTSLAPGEREVMEKLVKRDSGSGGFNSLISAVLEKQTLSATAIWQLLLVVQETKTCPLDLLMEEIRREPGADAFFRAVTTPEHATLETILRHNQLILEAIQQKIECKLFTSEEEHLAETVKEILSIPSETASPEASLRAVLSRAMEKSVPAIEICHLLCSVHKSFPGLQPVMQELAYIGVLTKEDGEKETWKVSNKFHLEANNKEDEKAAKEDSQPGEQNDQGETGSLPGQQEKEASASPDPAKKSFICKACDKSFHFYCRLKVHMKRCRVAKSKQVQCKECSETKDSKKELDKHQLEAHGAGGEPDAPKKKKKRLPVTCDLCGREFAHASGMQYHKLTEHFDEKPFSCEECGAKFAANSTLKNHLRLHTGDRPFMCKHCLMTFTQASALAYHTKKKHSEGKMYACQYCDAVFAQSIELSRHVRTHTGDKPYVCRDCGKGFRQANGLSIHLHTFHNIEDPYDCKKCRMSFPTLQDHRKHIHEVHSKEYHPCPTCGKIFSAPSMLERHMVTHVGGKPFSCGICNKAYQQLSGLWYHNRTHHPDVFAAQNHRSSKFSSLQCSSCDKTFPNTIEHKKHIKAEHADMKFHECDQCKELFPTPALLQVHVKCQHSGSQPFRCLYCAATFRFPGALQHHVTTEHFKQSETTFPCELCGELFTSQAQLDSHLESEHPKVMSTETQAAASQMAQVIQTPEPVAPTEQVITLEETQLAGSQVFVTLPDSQASQASSELVAVTVEDLLDGTVTLICGEAK”, the protein production result is “not failed”.

For the sequence “GEVKQIVGTPRDITQRKRREQMLKSRRRKIEALYRATSGLLSVETRDAVPGRIAEVLQEVFDFPLRHVGLVEGEMLVPKETVGEDLSRMPEPKAQPLSEDLVATRAIQAGEAVVVESTGGLENDLDYGTLSTLAGIPIGGHGAVVVGKEAGTFDALDLRLLEVLGGYGTLVLGRLEREERLVQAREEAEEAAQLKSAMLANMSHEVRTP”, the protein production result was “failed”.

On to “GGVMHYTDKAALPADGEAREVAALFDTWNAALATGNPHKVADLYAPDGVLLPTVSNEVRASREQIENYFEMFLTKKPKGVINYRTVRLLDDDSAVDAGVYTFTLTDKNGKKSDVQARYTFVYEKRDGKWLIINHHSSAMPEVDTATATAAVTKAK”, for which the protein production entry was “not failed”.

“GHMEERVLGMPAVESNMFPLGKQAPPFALTNVIDGNVVRLEDVKSDAATVIMFICNHCPFVKHVQHELVRLANDYMPKGVSFVAINSNDAEQYPEDSPENMKKVAEELGYPFPYLYDETQEVAKAYDAACTPDFYIFDRDLKCVYRGQLDDSRPNNGIPVTGESIRAALDALLEGRPVPEKQKPSIGCSIKWKPSA”: the protein production result is “not failed”.

For the sequence “GHMPTKQQLLYEGKAKKIYATDEPDVLWVEYKDSATAFNGEKKATIAGKGRLNNEISSLLFLKLREAGIANHFIEKLSPTEQLVRRVTIIPLEVVVRNVVAGSLAKRIGLEEGTPLEAPLVEFYYKNDDLGDPLLLEDHIFILKLASREEVAALKQAALAVNDVLRLHFAERNVRLIDFKLEFGRTADGAILLADEISPDTCRLWDAKTNEKLDKDVFRRDLGSLTDAYEVILQRLGGESACTK”, the protein production entry is “not failed”.

For “GHPTEVLCLMNMVLPEELLDDEEYEEIVEDVRDECSKYGLVKSIEIPRPVDGVEVPGCGKIFVEFTSVFDCQKAMQGLTGRKFANRVVVTKYCDPDSYHRRDFW”, the protein production result is recorded as “not failed”.

On to “GIPSLVATAERRMKLVPGSVVMQFASIGFDVAVFELSMALCTGSRLVIVPDESRVAGPELTDFMAAHAVTHAIIPPSLLAALPSGCDVPEGCTVLVGTETVPPELIGRWAERLNLLAAYGLTEATVNNTLWQAQPGWDSAVPIGIP”, for which the protein production entry is “failed”.

As for “GKIVEIGVGFYLEVAKRLRESGIDILVVDINEKAINYARKQGIKGVVDDIFNPTLGIYKDAKAIYSIRPAPEMMKPLLDLARKLKIPLYIVPLTGDR”, the protein production result was “failed”.

For the sequence “GKSFDAVRRTLSTELAQLRDDISRLMQAAVEAGAEAADDGEAVVISGERKLLDVTDIASDMDRLRKMFSLFEKKTDLLQLLDVSSRAQGVQIYIGGDSQLVPMEEVSVITAPYGVDGKVIGTLGVIGPTRMAYERVIPIVDITARLLSNALSHNQ”, the protein production result is “failed”.

For “GKVYTINSGPIYANPIIHHQVNEKIGYLVYSAFESGFDQELFDVFKEFKSQNITELILDLRYNGGGDVTSANLISSCIAGDLCIDKTFASYRYNDERMKVLGNQRPIQKFAYSQYDNLSTSLSAGGLNLRKIYCLVTDDSASASELVINALRGIDIEVILIGTTTHGKNVGMEGVELTAGTDKYLLFPITFQAYNAKGFGDFENGFTPDYEINENKPNGEYFEGYGDFGAESDPLYAKAISLISGNEVTT”, the protein production entry is reported as “failed”.

Regarding “GLPRRAVTQLVEQPLVVVDFLAHITAQGGHAAVIGWKDLAYAGVIDSGGVCENIIAIPNPGTEPLNVAAVLCEGLDVVVYKGPEISLSPTRARPLLGKLRQGTAALVMVGTKVSSPALSVDAEITDYVGIGAGSGRIRGVEMQVRAVSKTHGVRSGKVLISRP”, the protein production entry is “failed”.

In the case of “GMKAADFTYVTVHGDNSRMSRLKAQYTMLFFYDPDCSNCRKFEKLFAEIPAFVEMVENGTLRVLAIYPDENREEWATKAVYMPQGWIVGWNKAGDIRTRQLYDIRATPTIYLLDGRKRVILKDTSMEQLIDYLATQAG”, the protein production result is “not failed”.

Take “GNLSFLATSDGASLAYRLDGAAEKPLLALSNSIGTTLHMWDAQLPALTRHFRVLRYDARGHGASSVPPGPYTLARLGEDVLELLDALEVRRAHFLGLSLGGIVGQWLALHAPQRIERLVLANTSAWLGPAAQWDERIAAVLQAEDMSETAAGFLGNWFPPALLERAEPVVERFRAMLMATNRHGLAGSFAAVRDTDLRAQLARIERPTLVIAGAYDTVTAASHGELIAASIAGARLVTLPAVHLSNVEFPQAFEGAVLSFLGA”: the protein production result is given as “not failed”.
